Measurements: patent US20240270846A1 (published 2024)

The binders below were run against T1, CD3 epsilon homodimer protein (UniProt P07766 23-126) (assay: SPR Biacore T200, antibody over immobilised CD3e homodimer;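 further: CD3 epsilon homodimer amine-coupled on a CM4 chip, run at 25 °C in HBS-EP+, Z = bound amount of each single-residue H chain variant over that of the parent antibody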).
T1 construct: also called CD3 (CD3 epsilon)
T1 sequence (P07766 23-126): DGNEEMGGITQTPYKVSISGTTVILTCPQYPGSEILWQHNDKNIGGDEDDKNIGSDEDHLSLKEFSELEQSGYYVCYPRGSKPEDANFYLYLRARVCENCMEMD

| ratio of amounts bound (Z=Y/X vs CE115HA000) | Binder |
| --- | --- |
| 0.36 | CE115HA000 F29V one-arm antibody (antibody, human IgG1, kappa, L234A L235A, N297A, name in Kabat numbering, one-arm antibody) heavy: QVQLVESGGGVVQPGRSLRLSCAASGFTVSNAWMHWVRQAPGKGLEWVAQIKAKSNNYATYYAESVKGRFTISRDDSKNSLYLQMNSLKTEDTAVYYCRYVHYGAYYGVDAWGQGTTVTVSSASTKGPSVFPLAPSSKSTSGGTAALGCLVKDYFPEPVTVSWNSGALTSGVHTFPAVLQSSGLYSLSSVVTVPSSSLGTQTYICNVNHKPSNTKVDKKVEPKSCDKTHTCPPCPAPEAAGGPSVFLFPPKPKDTLMISRTPEVTCVVVDVSHEDPEVKFNWYVDGVEVHNAKTKPREEQYASTYRVVSVLTVLHQDWLNGKEYKCKVSNKALPAPIEKTISKAKGQPREPQVYTLPPSRCELTKNQVSLSCAVKGFYPSDIAVEWESNGQPENNYKTTPPVLDSDGSFFLVSKLTVDKSRWQQGNVFSCSVMHEALHNHYTQKSLSLSPDYKDDDDK EPKSSDKTHTCPPCPAPELLGGPSVFLFPPKPKDTLMISRTPEVTCVVVDVSHEDPEVKFNWYVDGVEVHNAKTKPREEQYNSTYRVVSVLTVLHQDWLNGKEYKCKVSNKALPAPIEKTISKAKGQPREPQVCTLPPSRDELTKNQVSLWCLVKGFYPSDIAVEWESNGQPENNYKTTPPVLDSDGSFFLYSKLTVDKSRWQQGNVFSCSVMHEALHNRYTQKSLSLSP light: DIVMTQSPLSLPVTPGEPASISCRSSQSLVHSNRNTYLHWYQQKPGQAPRLLIYKVSNRFSGVPDRFSGSGSGTDFTLKISRVEAEDVGVYYCGQGTQVPYTFGQGTKLEIKRTVAAPSVFIFPPSDEQLKSGTASVVCLLNNFYPREAKVQWKVDNALQSGNSQESVTEQDSKDSTYSLSSTLTLSKADYEKHKVYACEVTHQGLSSPVTKSFNRGEC |
| 0.78 | CE115HA000 G65E one-arm antibody (antibody, human IgG1, kappa, L234A L235A, N297A, name in Kabat numbering, one-arm antibody) heavy: QVQLVESGGGVVQPGRSLRLSCAASGFTFSNAWMHWVRQAPGKGLEWVAQIKAKSNNYATYYAESVKERFTISRDDSKNSLYLQMNSLKTEDTAVYYCRYVHYGAYYGVDAWGQGTTVTVSSASTKGPSVFPLAPSSKSTSGGTAALGCLVKDYFPEPVTVSWNSGALTSGVHTFPAVLQSSGLYSLSSVVTVPSSSLGTQTYICNVNHKPSNTKVDKKVEPKSCDKTHTCPPCPAPEAAGGPSVFLFPPKPKDTLMISRTPEVTCVVVDVSHEDPEVKFNWYVDGVEVHNAKTKPREEQYASTYRVVSVLTVLHQDWLNGKEYKCKVSNKALPAPIEKTISKAKGQPREPQVYTLPPSRCELTKNQVSLSCAVKGFYPSDIAVEWESNGQPENNYKTTPPVLDSDGSFFLVSKLTVDKSRWQQGNVFSCSVMHEALHNHYTQKSLSLSPDYKDDDDK EPKSSDKTHTCPPCPAPELLGGPSVFLFPPKPKDTLMISRTPEVTCVVVDVSHEDPEVKFNWYVDGVEVHNAKTKPREEQYNSTYRVVSVLTVLHQDWLNGKEYKCKVSNKALPAPIEKTISKAKGQPREPQVCTLPPSRDELTKNQVSLWCLVKGFYPSDIAVEWESNGQPENNYKTTPPVLDSDGSFFLYSKLTVDKSRWQQGNVFSCSVMHEALHNRYTQKSLSLSP light: DIVMTQSPLSLPVTPGEPASISCRSSQSLVHSNRNTYLHWYQQKPGQAPRLLIYKVSNRFSGVPDRFSGSGSGTDFTLKISRVEAEDVGVYYCGQGTQVPYTFGQGTKLEIKRTVAAPSVFIFPPSDEQLKSGTASVVCLLNNFYPREAKVQWKVDNALQSGNSQESVTEQDSKDSTYSLSSTLTLSKADYEKHKVYACEVTHQGLSSPVTKSFNRGEC |
| 0.2 | CE115HA000 H35D one-arm antibody (antibody, human IgG1, kappa, L234A L235A, N297A, name in Kabat numbering, one-arm antibody) heavy: QVQLVESGGGVVQPGRSLRLSCAASGFTFSNAWMDWVRQAPGKGLEWVAQIKAKSNNYATYYAESVKGRFTISRDDSKNSLYLQMNSLKTEDTAVYYCRYVHYGAYYGVDAWGQGTTVTVSSASTKGPSVFPLAPSSKSTSGGTAALGCLVKDYFPEPVTVSWNSGALTSGVHTFPAVLQSSGLYSLSSVVTVPSSSLGTQTYICNVNHKPSNTKVDKKVEPKSCDKTHTCPPCPAPEAAGGPSVFLFPPKPKDTLMISRTPEVTCVVVDVSHEDPEVKFNWYVDGVEVHNAKTKPREEQYASTYRVVSVLTVLHQDWLNGKEYKCKVSNKALPAPIEKTISKAKGQPREPQVYTLPPSRCELTKNQVSLSCAVKGFYPSDIAVEWESNGQPENNYKTTPPVLDSDGSFFLVSKLTVDKSRWQQGNVFSCSVMHEALHNHYTQKSLSLSPDYKDDDDK EPKSSDKTHTCPPCPAPELLGGPSVFLFPPKPKDTLMISRTPEVTCVVVDVSHEDPEVKFNWYVDGVEVHNAKTKPREEQYNSTYRVVSVLTVLHQDWLNGKEYKCKVSNKALPAPIEKTISKAKGQPREPQVCTLPPSRDELTKNQVSLWCLVKGFYPSDIAVEWESNGQPENNYKTTPPVLDSDGSFFLYSKLTVDKSRWQQGNVFSCSVMHEALHNRYTQKSLSLSP light: DIVMTQSPLSLPVTPGEPASISCRSSQSLVHSNRNTYLHWYQQKPGQAPRLLIYKVSNRFSGVPDRFSGSGSGTDFTLKISRVEAEDVGVYYCGQGTQVPYTFGQGTKLEIKRTVAAPSVFIFPPSDEQLKSGTASVVCLLNNFYPREAKVQWKVDNALQSGNSQESVTEQDSKDSTYSLSSTLTLSKADYEKHKVYACEVTHQGLSSPVTKSFNRGEC |
| 0.76 | CE115HA000 G65D one-arm antibody (antibody, human IgG1, kappa, L234A L235A, N297A, name in Kabat numbering, one-arm antibody) heavy: QVQLVESGGGVVQPGRSLRLSCAASGFTFSNAWMHWVRQAPGKGLEWVAQIKAKSNNYATYYAESVKDRFTISRDDSKNSLYLQMNSLKTEDTAVYYCRYVHYGAYYGVDAWGQGTTVTVSSASTKGPSVFPLAPSSKSTSGGTAALGCLVKDYFPEPVTVSWNSGALTSGVHTFPAVLQSSGLYSLSSVVTVPSSSLGTQTYICNVNHKPSNTKVDKKVEPKSCDKTHTCPPCPAPEAAGGPSVFLFPPKPKDTLMISRTPEVTCVVVDVSHEDPEVKFNWYVDGVEVHNAKTKPREEQYASTYRVVSVLTVLHQDWLNGKEYKCKVSNKALPAPIEKTISKAKGQPREPQVYTLPPSRCELTKNQVSLSCAVKGFYPSDIAVEWESNGQPENNYKTTPPVLDSDGSFFLVSKLTVDKSRWQQGNVFSCSVMHEALHNHYTQKSLSLSPDYKDDDDK EPKSSDKTHTCPPCPAPELLGGPSVFLFPPKPKDTLMISRTPEVTCVVVDVSHEDPEVKFNWYVDGVEVHNAKTKPREEQYNSTYRVVSVLTVLHQDWLNGKEYKCKVSNKALPAPIEKTISKAKGQPREPQVCTLPPSRDELTKNQVSLWCLVKGFYPSDIAVEWESNGQPENNYKTTPPVLDSDGSFFLYSKLTVDKSRWQQGNVFSCSVMHEALHNRYTQKSLSLSP light: DIVMTQSPLSLPVTPGEPASISCRSSQSLVHSNRNTYLHWYQQKPGQAPRLLIYKVSNRFSGVPDRFSGSGSGTDFTLKISRVEAEDVGVYYCGQGTQVPYTFGQGTKLEIKRTVAAPSVFIFPPSDEQLKSGTASVVCLLNNFYPREAKVQWKVDNALQSGNSQESVTEQDSKDSTYSLSSTLTLSKADYEKHKVYACEVTHQGLSSPVTKSFNRGEC |
